Reference: IntAct's records for PubMed 9891048

B1: DNA damage checkpoint control protein RAD17 (Saccharomyces cerevisiae), P48581 (parent)
chain: MRINSELANKFSASTVHLEHITTALSCLTPFGSKDDVLIFIDADGLSFVRENNHVIKIQLLLSRELFMSYSYRNETEDHMKLCVKINHILDSVSVMNRNSDDIVECTLSYDGHGSPFVLIFEDSFISERVEYSTYLIKDFDTNGLELDRERISFEAIIKGEALHSALKDLKEIGCKECYVYAKTEANDENVFALISKSQLGFSKIKLPSNRSILEKLQVFDGDSTTVIDGFAVIGFFDFTSFDKIRKSTKIASKVLFRMDVHGVLSVNILSQTDDVIITDTTRPSNNRPGSIRQLQLPKDYPGIVIEVCMLEKESIDEAAQTEIELLMETNELGNRNSFKKSTIRKRYGTDKGNETSNDNLLQLNGKKIKLPSEEENNKNRESEDEENHCKYPTKDIPIFF
partner: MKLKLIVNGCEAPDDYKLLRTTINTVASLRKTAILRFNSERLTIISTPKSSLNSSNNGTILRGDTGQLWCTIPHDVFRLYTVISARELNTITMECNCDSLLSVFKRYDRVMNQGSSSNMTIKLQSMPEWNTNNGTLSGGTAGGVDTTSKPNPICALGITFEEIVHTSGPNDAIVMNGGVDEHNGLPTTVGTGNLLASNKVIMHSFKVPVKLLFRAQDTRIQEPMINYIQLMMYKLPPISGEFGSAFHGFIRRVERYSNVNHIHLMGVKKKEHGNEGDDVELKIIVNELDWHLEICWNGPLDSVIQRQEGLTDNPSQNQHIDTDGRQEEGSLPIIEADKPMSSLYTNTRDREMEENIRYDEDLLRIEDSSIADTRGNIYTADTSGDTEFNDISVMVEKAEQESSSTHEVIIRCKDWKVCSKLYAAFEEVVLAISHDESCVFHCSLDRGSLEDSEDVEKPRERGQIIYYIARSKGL

Variants of: B1
Conditions: with mec3_yeast MEC3, Q02574

effect of a mutation on the interaction	Variant
decreasing interaction	MRINSELANKFSASTVHLEHITTALSCLTPFGSKDDVLIFIDADGLSFVRENNHVIKIQLLLSRELFMSYSYRNETEDHMKLCVKINHILDSVSVMNRNSDDIVECTLSYDGHGSPFVLIFEDSFISKRVEYSTYLIKDFDTNGLELDRERISFEAIIKGEALHSALKDLKEIGCKECYVYAKTEANDENVFALISKSQLGFSKIKLPSNRSILEKLQVFDGDSTTVIDGFAVIGFFDFTSFDKIRKSTKIASKVLFRMDVHGVLSVNILSQTDDVIITDTTRPSNNRPGSIRQLQLPKDYPGIVIEVCMLEKESIDEAAQTEIELLMETNELGNRNSFKKSTIRKRYGTDKGNETSNDNLLQLNGKKIKLPSEEENNKNRESEDEENHCKYPTKDIPIFF [E128K]
